Results reported in publication doi:10.1101/2020.12.03.409995 (2020).

What was measured:
Biotin-Aβ42 oligomers [1] = molecular target: T1, Biotin-Aβ42 oligomers (human, UniProt P05067 672-713, biotin (position not given)); experiment: BLI; koff2 (second site)
Biotin-Aβ42 oligomers [2] = molecular target: T1, Biotin-Aβ42 oligomers; experiment: BLI; koff1 (first site)

koff (Biotin-Aβ42 oligomers [1]): 0.00772 s⁻¹ | koff (Biotin-Aβ42 oligomers [2]): 0.435 s⁻¹
B1: wild-type sTREM2 (TREM2 ectodomain, residues 19-143, His-tagged) (domain or fragment)
chain: HNTTVFQGVAGQSLQVSCPYDSMKHWGRRKAWCRQLGEKGPCQRVVSTHNLWLLSFLRRWNGSTAITDDTLGGTLTITLRNLQPHDAGLYQCQSLHGSEADTLRKVLVEVLADPLDHRDAGDLWF
